For 1 molecule, Kd results are on record in paper PMC4293355 (Developmental cell, 2014).

This test concerns the target G-actin (UniProt P68135 1-377). Kind of test: fluorescence polarisation. (In general: In fluorescence polarisation assays a small probe gives low polarisation when free and higher when bound to something large.)

B1: TMR-SpWsp1(VCA) (domain or fragment)
chain: QDGRANLMASIRASGGMDLLKSRKVSASPSVASTKTSNPPVEAPPSNNLMDALASALNQRKTKVAQSDEEDEDDDEWD
modifications: TMR-labeled (position not given)
The term Kd denotes a measure of binding affinity in units of concentration. A low value points to a tighter complex. The molecule B1 gave a dissociation constant (Kd) of about 21 nM.
